Source: the DeepSol protein solubility set

Experiment: soluble on expression in E. coli; label from the status in PepcDB or PDB records

Sequence	soluble on expression in E. coli
MIFEQGIEIKASATVVEQCFTDLDLMHLWLNPALRCEPIGQWSTAIGGRSRFTIQIPLLKPSLKSVVVERSPGLVVWQFKGFFQGQDRWECRPLEEGTYLLNRFEFTVPNPVVQWGFQMFAARWTSADMQAQLRRLKQVAEREYINSLEHHHHHH	not soluble
MNTILAQQIANEGGVEAWMIAQQHKSLLRFLTCGSVDDGKSTLIGRLLHDTLQIYEDQLSSLHNDSKRHGTQGEKLDLALLVDGLQAEREQGITIDVAYRYFSTERRKFIIADTPGHEQYTRNMATGASTCDLAILLIDARKGVLDQTRRHSFISTLLGIKHLVVAINKMDLVDYREETFARIREDYLTFAEQLPGDLDIRFVPLSALEGDNVAAQSANMRWYSGPTLLEVLETVDIQRAVDRQPMRFPVQYVNRPNLDFRGYAGTLASGSVKVGERIKVLPSGVESSVARIVTFDGDKEEACAGEAITLVLNDDIDISRGDLLLAANETLAPARHAAIDVVWMAEQPLAPGQSYDVKLAGKKTRARIEAIRYQIDINNLTQRDVESLPLNGIGLVEMTFDEPLALDIYQQNPVTGGLIFIDRLSNVTVGAGMVRELDERGATPPVEYSAFELELNALVRRHFPHWDARDLLGDKHGAA	not soluble
MSLRHDFVFSGVIMLELNAKTTALVVIDLQEGILPFAGGPHTADEVVNRAGKLAAKFRASGQPVFLVRVGWSADYAEALKQPVDAPSPAKVLPENWWQHPAALGATDSDIEIIKRQWGAFYGTDLELQLRRRGIDTIVLCGISTNIGVESTARNAWELGFNLVIAEDACSAASAEQHNNSINHIYPRIARVRSVEEILNALEGGSHHHHHH	soluble
RLNLKAIAERSESLEDFFTRTLPHYCQQQIAIIDARCEFLYQQSHFFENSFLVKEGLINPERFVPMFGMYGLAEAVNLLCEKEGIAARYGKEAAANEVGYRISAQLAEFVANTPVKYGWQKRAMLHAQSGISSDIGTTPGARLPYGDEPDPITHLQTVAPHHAYYYSGISDILTLDETIKRNPQALVQLCLGAFKAGMREFTANVSGNDLVRVTGYMVRLSDLEKYRAEGSRTNTTWL	not soluble
MAANSTRRPIIAFMSDLGTTDDSVAQCKGLMYSICPDVTVVDVCHSMTPWDVEEGARYIVDLPRFFPEGTVFATTTYPATGTTTRSVAVRIKQAAKGGARGQWAGSGAGFERAEGSYIYIAPNNGLLTTVLEEHGYLEAYEVTSPKVIPEQPEPTFYAREMVAIPSAHLAAGFPLSEVGRPLEDHEIVRFNRPAVEQDGEALVGVVSAIDHPFGNVWTNIHRTDLEKAGIGYGARLRLTLDGVLPFEAPLTPTFADAGEIGNIAIYLNSRGYLSIARNAASLAYPYHLKEGMSARVEAR	soluble
MKIAIIGAGIGGLTAAALLQEQGHTIKVFEKNESVKEIGAGIGIGDNVLKKLGNHDLAKGIKNAGQILSTMTVLDDKDRLLTTVKLKSNTLNVTLPRQTLIDIIKSYVKDDVIFTNHEVTHIDNETDKVTIHFAEQESEAFDLCIGADGIHSKVRQSVNADSKVLYQGYTCFRGLIDDIDLKHPDCAKEYWGRKGRVGIVPLLNNQAYWFITINSKENNHKYSSFGKPHLQAYFNHYPNEVREILDKQSETGILLHNIYDLKPLKSFVYGRTILLGDAAHATTPNMGQGAGQAMEDAIVLVNCFNAYDFEKALQRYDKIRVKHTAKVIKRSRKIGKIAQYRSRLFVAVRNRIMKMMPNALAAGQTKFLYKSKEKLEHHHHHH	soluble
MGSDKIHHHHHHMGTDSEKAIPPKVSRAAAEWLVELHSGQVGKEVREQWQAWRAAHPDHERAWQHIEMLGERLGGLSSSLAHATMAPRGSLRRRRAIKTLAMLLFAGGSAWVVQEKTPWWQLSADYSTGIGEQRRIELEDGTVVDLNSSSAINVAYTQQQRILMLLRGEMHVATASESATARPFLIASDQGSVRAFGTRFVVRQLTNEKDSPIKVGVLEGAVEVAPSEMPARVRLQAGEQLSFTRHMVTPIEPVIPHDTAWLQRMLVADDMPLGEFLAELSRYRKGSLGCDHSIKHLKVSGTYPLDDTDKVIEMLQQSLNLQVRMLTRYWVRLMPPAA	not soluble
MSLTARSVVLSVLLGAHPAWATASELIQLTADFGIKETTLRVALTRMVGAGDLVRSADGYRLSDRLLARQRRQDEAMRPRTRAWHGNWHMLIVTSIGTDARTRAALRTCMHHKRFGELREGVWMRPDNLDLDLESDVAARVRMLTARDEAPADLAGQLWDLSGWTEAGHRLLGDMAAATDMPGRFVVAAAMVRHLLTDPMLPAELLPADWPGAGLRAAYHDFATAMAKRRDATQLLEVTEGHHHHHH	soluble
MSLDYEIFNPYEGLIFDMDGTLIDTMPVHAQAWTMVGKKFGYEFDFQIMYNFGGATVRTIAGEMMKAANMPLDRIEDVLAAKRELSYQLIPTQSKLLPTFEIVKSFHQKKPIALGSGSHRKIIDMLMDKLAIAPYFNAIVSADDVKEHKPHPETFLRCAELIQANPSRCIVFEDADLGVQAGLSAGMDVFDVRTREIISPREGHHHHHH	soluble
MGSDKIHHHHHHMKLIDLHVHSYHSDGVLAPAVLVAMAAERGLASLAIADHDAVDGIDEAVAEGVRLGVDVIPAVELSVELGRFSDLHILGYCIDHHDPAFRDKLAGFRSARDNRGKAILEKINRRLLHSRKAPLSYDEVLSMAGGAVGRPHIGRVLVDNGYARDMEDAFRRYLIPCNVPKRYMPAGEAIAEIRRIGGVSVLAHPPTITDDRRRLRQVVEQLAQLGLDGLEVFNNLCFKDDMLYLERLAEEFGLLMTGGSDFHGFEDDVELGRGRGGLAVAHSLAEKVKELAAQRKHSHA	not soluble
MARHHHHHHMPEGKIIKALSGFYYVLDESEDSDKVIQCRGRGIFRKNKITPLVGDYVVYQAENDKEGYLMEIKERTNELIRPPICNVDQAVLVFSAVQPSFSTALLDRFLVLVEANDIQPIICITKMDLIEDQDTEDTIQAYAEDYRNIGYDVYLTSSKDQDSLADIIPHFQDKTTVFAGQSGVGKSSLLNAISPELGLRTNEISEHLGRGKHTTRHVELIHTSGGLVADTPGFSSLEFTDIEEEELGYTFPDIREKSSSCKFRGCLHLKEPKCAVKQAVEDGELKQYRYDHYVEFMTEIKDRKPRY	soluble
MSRVRTKTVKKASRVLIEKYYTRMTNDFHNNKRVCDEVAIIGSKPLRNKIAGYITHLMRRIERGPVRGISIKLQEEERERRDNYMPEISTVDPSQLTSIKVDTDTSDMLKAAGFNLPNVTVEDQGKNKGK	not soluble
MGSSHHHHHHDYDIPTTENLYFQGGGGGGMRAAVVYKTDGHVKRIEEALKRLEVEVELFNQPSEELENFDFIVSVGGDGTILRILQKLKRCPPIFGINTGRVGLLTHASPENFEVELKKAVEKFEVERFPRVSCSAMPDVLALNEIAVLSRKPAKMIDVALRVDGVEVDRIRCDGFIVATQIGSTGYAFSAGGPVVEPYLECFILIPIAPFRFGWKPYVVSMERKIEVIAEKAIVVADGQKSVDFDGEITIEKSEFPAVFFKNEKRFRNLFGKVRSIG	soluble
MPFWGAGIKILHISEDFRTVKVRLKLRWWNKNANRTQYGGSIFSLTDPIYSLMLMGILREEYYVWDKEASINFIKPGQSDLFAEFEITDGMLDEIYQMTRNGEKCFPEFITHVKDKQGNVVSEVQRKLYVRKLEHHHHHH	not soluble
MGSDKIHHHHHHMKVDWDHLQFFLVLARTKTLTNAARIIGVEHSTVARRIQALELALGTTLFKREATGYELTLEGMALVPRVEQMEQAFLQIEKPHQPLQGRVRIGTPEGFGTAFLARLLAEFSIQYPLLTIDLIPVPKMIKLSHREADIVVSIERPTSGPYIITRLSDYCLKIYGSQNYLAQNPPIRRLEDLTQHRFVNYIDDLVYSPELYCLERLPLKLNANFRSSSILAQQIAVSAGAGLAILPKFLADDKPELEEVLEQQVRFTHTFWMLTFVDLQHEPRIKLVWDYLRKQADKYQHLLVD	not soluble
MGSDKIHHHHHHMVYTTPWNRKIEFGRTMVMGIINVTPDSFFADSRKQSVLEAVETAKKMIEEGADIIDVGGMSTRPGSDPVDEEEELNRVIPVIRAIRSITDVPISVDTYRWRVALKALEAGADIVNDISGYQFEPDIVRVVSENNVPYVLMHIKGTPKTMQENPHYEDVVKEIKEYFTEKIEYLKEKGVNQIVLDPGIGFGKRYEDNLEILRRIDEFKELKLPILIGASRKSFIGITLGNVPPEERLEGTLAVTAYCTMKGVDIIRVHDVLPNKRVIRMMEAILWQRL	not soluble
MDLIFSLGVMIMPLTPPASPKTERRSEEDNQQTNQQGNEQGNQQPRSSILTLFGFTPNALVMPCPHGHGHFHIMDIQADDTLVFATMNGSPEIMSLLALQFLMQNVNLNLDDMLAAETDAKEAEEKEEQELSSSESVNEEKEEAEFSSSESENEEKEEENEESSRFTM	not soluble
MGSDKIHHHHHHMDADELELKGHLKKLKKEELLRRKQLKESNLQKRELEYNNASKNTSIYISGLPTDKTTKEGLTEQFCKYGMIRTNRDGEPLCKLYVNDKGAFKGDALITYSKEESVTLAIEMMNESIFLGKQIRVERAQFQNKEGDNMHGKENDLKEFNGPEPPIKRLKKAKSEGEGEVIDYNDDESLAKADRTVIFANVFNIYKSYTNDDINDIQEDLLEGCEEIGQVDSISVSPNKGEATVVFKNNKVALQCCKIMTGRYFDGQKLLAFISGDENTSSTSDKNEDSEVEDDLI	not soluble
MLTRCQARLLGLTSGEDGGASGSSTSSVPQSPTGVATSGLPRVSGYSIACEASSATSAKPGDPPPFIRRLSLAATSSSSASTAARGCRTNSFFEPSASASKAALHVNSGSGGDGGGGRARLGARPTDAPLSKAQAAIDYWTAASTTAGPSIWFAKDSASPWRALHVSSPKAAVHVTGSFGATLKSADGSSLAGCSARLTAAQLRVRWCGVTRNCSSLHASTRATANGGGAPRASANSVHGVHTAQLSIAACPASTPPRTEFVIEARAGIATSGGDSTGVAQQTDRALAPLNVASRRSLALFTSPFYADVAAPALSASAAALGATEAAALLPVMHQISTQRAAAAALALRQRKEDVRAQRQRRICHEVHNQVYMKAHEVRMRLLFGLSGTDSDAATPAPSGTLAQGHAVAPSAPSKAALGEDHIAADEEAYLQSLNPSKSDEEAKVLRVVASIDAALRRHLASAYKDASQPTFPSESSSADQRVRAADAVADHHHHHHFTDGFAARQPAILEAVIADATRRVESFTGELLPYQQEGVRWLLRLTAVEHMGGILADDMGLGKTAQTVVYLSCYKDMVERVVQGLLEELEQRHARLCQRALGLTVTATGSGALAREAGSVEEGEMPSWLTWCAEATAKGEYISRRTEGRLQRSSSTIQPLMRGVAHGDSIAASAPLAATVEPASTAATPELAAARAWWLHKTCEAGEAMAVAAGGGQGRGRHSCG	not soluble
MKDEISNPDLGAIYTTKILGVLLENWPKQTYLCCSEVTGIDFDEESVFDSFSPQPYPKEWEVCRDLIVWLENEGFIRSEGSRGSSFGFFSVEITMSAMTALNQVPDPLDPESTRTLKDTLKDIAKSGSGKLADKIMDKAFFAFVTMLEKSAG	not soluble
MKTSPRSNRLHIALFGKRNSGKSSLINALTNQNAALVSDIAGTTTDPVYQPMEIHGIGPCVFIDTAGFDDEGELGSLRIERTLQAADKADIALMVCCDTELSEEQRWIELLKERNIPYLLVLNKADLLEKPDEVADKLEQQTGQHPLIVSAKEKTGIDSIRQSILHRLPELNEQPDIVGDLANEGDVVLLVMPQDIQAPKGRLILPQVQTLRELLDKKCITLSCTTDQLDNALKALSVPPSLIITDSQVFRTVYEKKPPQSRLTSFSVLFARYKGDIDYYTEGAYIIDQLTENSRVLIAEACTHAPLSEDIGRVKLPRMLRKRIGEKLHIDIVSGNDFPKDLNCYDLIIHCGACMFNRKHVLNRIVKAKAQGVPMTNYGIVIAYINGIPFH	soluble
MTQHNDNDDDAALFRAAIGPVRPLRPSEMAITIKPPSRPRRRIIQHHQDEAKSKFAQLLRESAPLEAGDTISYRSKALPSRLFQRLKRGQFSVQDELDLHGATVVQAETLLRQFLLEAHMYEYGCVRIIHGKGLQSNGGTPVLKNLVNQLLRLRKDVLAFHSSPPAQGGTGAVLVLLTHH	soluble
